The target of this assay is preformed IL-17RA-IL-17A complex (IL-17A captured by immobilised IL-17RA) (human) (UniProt Q16552). Kind of assay: SPR, second receptor injected over IL-17A captured on immobilised IL-17RA. (SPR reads the build-up and loss of mass on a sensor chip optically.)
Chain of preformed IL-17RA-IL-17A complex (IL-17A captured by immobilised IL-17RA) (human) (Q16552 other isoform, or with tags, fused parts or gaps): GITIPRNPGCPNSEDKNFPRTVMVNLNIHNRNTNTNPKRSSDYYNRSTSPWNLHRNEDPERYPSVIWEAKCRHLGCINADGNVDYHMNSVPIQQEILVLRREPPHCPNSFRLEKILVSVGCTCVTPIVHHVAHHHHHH

Usually Kd stands for a measure of binding affinity in units of concentration. A lower Kd goes with tighter binding. Substance “IL-17RA extracellular domain (ECD) (receptor)” had a dissociation constant (Kd) of 3.1 µM.

The values are drawn from US20140105855A1.
